Key:
[1] = target: F-actin (actin filaments from rabbit skeletal muscle actin) (rabbit) (UniProt P68135); assay: single-molecule TIRF microscopy
[2] = target: mN2G^CH (N-terminal CH domains of nesprin-2G only) (mouse); assay: mass photometry

fold residence time on F-actin against utrophin [1]: > 2 fold | stoichiometry N [2]: 2
Substance: mN2G^CH (N-terminal CH domains of nesprin-2G only) (domain or fragment)

Source: PMC11844729
